Test results as given in article PMC7572813.

Biological target: B/Phuket/3073/2013 NA ectodomain (residues W80-L466) (influenza B virus B/Phuket/3073/2013)
Assay: cryo-EM structure

B/Phuket/3073/2013 NA ectodomain (residues W80-L466) (domain or fragment)
stoichiometry N: 4
